Laboratory results from patent US20230213527A1, “COMPOSITIONS AND METHODS FOR POLYPEPTIDE ANALYSIS” (Quantum-Si Incorporated, priority 2021, published 2023).

B1: PS691: arginine recognizer generated from the UBR-box domain of K. lactis UBR1 protein (protein)
chain: MHSKFSHAGRICGAKFKVGEPIYRCKECSFDDTCVLCVNCFNPKDHTGHHVYTTICTEFNNGICDCGDKEAWNHTLFCKAEEGGSAGSAAGSGEFMHSKFSHAGRICGAKFKVGEPIYRCKECSFDDTCVLCVNCFNPKDHTGHHVYTTICTEFNNGICDCGDKEAWNHTLFCKAEEGGGSHHHHHHHHHHGGGSGGGSGGGSGLNDFFEAQKIEWHEGGGSGGGSGGGSGLNDFFEAQKIEWHE
B2: PS961: Planctomycetes ClpS variant recognizer for N-terminal leucine, isoleucine, and valine (protein)
chain: MPTAASATESAIEDTPAPARPEVDGRTKPKRQPRYHVVLWDDDDHTYQYVVVMLRSLFGHPPSRGYRMAKEMDTQGRVIVLTTTREHAELKRDQIHAFGRDRLLARSKGSMKASIEAEE

Experiments:
[1] = test system: N-terminal lysine and histidine; test: Polarization binding assay of PS691, peptides with N-terminal arginine, lysine, histidine; conditions: compared with N-terminal arginine
Procedure: In a separate screen, a diverse set of UBR-box domains from the UBR family of ubiquitin ligases that natively bind N-terminal arginine, lysine, and histidine were investigated. […] PS691 recognized arginine in a peptide with N-terminal RLA with a median PD of 0.23 s (FIG. 2C).
(§1) Binding affinity was measured by polarization using a labeled peptide. The polarization response and total intensity measurements were carried out at 20° C. on a microplate fluorometer with 480 nm excitation and 530 nm emission. The interaction of recognizer with labeled peptide containing a target N-terminal residue (XAKLDEESILKQK-FITC (SEQ ID NO: 833)) was performed in PBS buffer at pH 7.4 and readings were collected after 30 min. Multiple analyses were performed at increasing recognizer concentration at a fixed concentration of a target peptide to obtain a titration curve. An equilibrium polarization response at each concentration was plotted and fit to calculate the KD.

[2] = target: N-terminal leucine, isoleucine, and valine; test: Binding affinity of PS961 (bulk characterization, polarization), N-terminal leucine, isoleucine, valine
Description: To expand the set of recognizable NAAs, N-end rule pathway proteins were investigated as a source of additional recognizers. In a comprehensive screen of diverse ClpS family proteins, a group of ClpS proteins from the bacterial phylum Planctomycetes with native binding to N-terminal leucine, isoleucine, and valine was discovered. […] The median PD of binding to peptides with N-terminal LAA, IAA, and VAA was 1.21, 0.28, and 0.21 s, respectively, in agreement with bulk characterization (FIG. 7C).
as §1

Molecule	Binding to N-terminal lysine and histidine [1]	Affinity [2]
B1	Lower affinity	
B2		sub-micromolar
